Assay results from article PMC10397247.

Assays:
Test in all cases: two-hybrid library CCNG1;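 also: natural log of median RNA to DNA barcode read ratio; higher means stronger binding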
[1] = target: T1, P12bH1
T1 chain: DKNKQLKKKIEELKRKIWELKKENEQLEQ

[2] = target: T2, P1bH1
T2 chain: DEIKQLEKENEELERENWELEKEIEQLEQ

[3] = target: T3, P2bH1
T3 chain: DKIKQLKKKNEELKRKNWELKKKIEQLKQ

[4] = target: T4, P3bH1
T4 chain: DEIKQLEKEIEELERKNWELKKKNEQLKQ

[5] = target: T5, P4bH1
T5 chain: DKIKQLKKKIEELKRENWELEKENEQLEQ

[6] = target: T6, P5bH1
T6 chain: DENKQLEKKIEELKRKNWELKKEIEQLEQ

[7] = target: T7, P6bH1
T7 chain: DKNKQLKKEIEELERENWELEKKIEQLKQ

[8] = target: T8, P7bH1
T8 chain: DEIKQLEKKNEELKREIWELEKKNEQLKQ

[9] = target: T9, P8bH1
T9 chain: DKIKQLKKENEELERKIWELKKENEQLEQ

[10] = target: T10, P9bH1
T10 chain: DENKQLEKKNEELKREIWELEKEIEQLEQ

Binder: DKNKQLKKKIEELKRKIWELKKENEQLEQ [P12bH1]
- interaction score [1]: -1.4
- interaction score [2]: -0.0192
- interaction score [3]: -1.01
- interaction score [4]: -1.43
- interaction score [5]: -0.999
- interaction score [6]: -0.826
- interaction score [7]: -0.251
- interaction score [8]: -0.861
- interaction score [9]: -0.578
- interaction score [10]: -0.294
